The experiment has as its target T1, α-catenin monomer (recombinant full-length mouse α-catenin) (mouse), P26231.
T1 chain: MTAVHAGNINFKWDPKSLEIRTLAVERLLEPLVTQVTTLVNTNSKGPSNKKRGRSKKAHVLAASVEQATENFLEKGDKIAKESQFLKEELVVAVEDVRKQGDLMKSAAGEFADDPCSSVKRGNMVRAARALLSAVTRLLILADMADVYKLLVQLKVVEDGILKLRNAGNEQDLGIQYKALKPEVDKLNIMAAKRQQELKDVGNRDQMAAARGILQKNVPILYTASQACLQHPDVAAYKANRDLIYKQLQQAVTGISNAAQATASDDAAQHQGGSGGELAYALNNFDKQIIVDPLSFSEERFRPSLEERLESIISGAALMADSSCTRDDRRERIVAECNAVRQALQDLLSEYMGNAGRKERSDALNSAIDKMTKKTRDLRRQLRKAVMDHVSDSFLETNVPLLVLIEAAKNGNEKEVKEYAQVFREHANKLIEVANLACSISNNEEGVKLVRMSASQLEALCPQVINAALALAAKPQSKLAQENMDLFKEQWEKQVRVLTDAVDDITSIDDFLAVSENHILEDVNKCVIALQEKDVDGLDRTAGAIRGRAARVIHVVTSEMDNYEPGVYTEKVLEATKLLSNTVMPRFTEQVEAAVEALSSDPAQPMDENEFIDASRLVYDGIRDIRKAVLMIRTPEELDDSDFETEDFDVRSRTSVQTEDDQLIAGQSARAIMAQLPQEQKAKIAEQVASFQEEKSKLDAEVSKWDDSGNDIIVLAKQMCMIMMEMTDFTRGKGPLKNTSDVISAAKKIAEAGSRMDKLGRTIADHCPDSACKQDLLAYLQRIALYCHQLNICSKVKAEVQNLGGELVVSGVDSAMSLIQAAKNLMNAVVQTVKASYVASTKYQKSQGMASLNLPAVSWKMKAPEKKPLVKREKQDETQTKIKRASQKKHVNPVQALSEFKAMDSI
Nature of the experiment: SEC; Superdex 200 gel filtration at 4°C in 20 mM Tris-HCl pH 8.0, 150 mM NaCl, 2.5 mM DTT, after His-tag affinity chromatography; dimer and monomers. The following applies: remark: other sources report otherwise. For orientation: Size exclusion chromatography separates by hydrodynamic size, large species first.

By stoichiometry N is commonly meant a count of units in the complex or per binding partner.

B1: α-catenin monomer (recombinant full-length mouse α-catenin), P26231 1-906 (natural protein)
chain: T1 chain
For B1, the stoichiometry N came to 2.

The values are drawn from paper PMC8729784.
